From the RNAGym collection of RNA variant scans (doi:10.1073/pnas.2313332121)
Variants at the floor of the assay were thinned out.

B1: TPR 5TU (parent)
chain: GGAUCUUCUCGAUCUAACAAAAAAGACAAAUCUGCCACAAAGCUUGAGAGCAUCUUCGGAUGCAGAGGCGGCAGCCUUCGGUGGCGCGAUAGCGCCAACGUUCUCAACUAUGACACGCAAAACGCGUGCUCCGUUGAAUGGAGUUUAUCAUG

Variants of: B1
Experiment: polymerase ribozyme fitness, log enrichment relative to wild type (log ratio); higher = more active; in vitro selection for triplet polymerase activity
How it was run: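 Streptavidin-bead capture of gel-excised extended constructs, followed by RT-PCR, closed a single triplicate in vitro selection round. That round began by annealing PCR-built, transcribed mutant libraries of each subunit of a heterodimeric triplet polymerase ribozyme with a biotinylated primer, the partner subunit and triplets, then incubating them frozen at −7 °C. After Illumina sequencing of inputs and outputs, genotypes needed ≥10 input reads and ≥1 read per output. Fitness is the base-2 logarithm of genotype enrichment over wild-type enrichment, using inverse-variance-weighted replicate averages.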

Row | Variant | polymerase ribozyme fitness (log ratio)
1 | C54A A91G | -3.97
2 | C54A A91U | ≤ -4.2
3 | C54A C105U A121G | -0.876
4 | C54A C99U | -1.85
5 | U53A C85U | -1.4
6 | U53A U55A G83U C123A G128U A147U | ≤ -4.2
7 | U53A G143C | -2.05
8 | C54A C116U U139A | -4.11
9 | C54A G92A G126U | -3.3
10 | C54G G86A A120U | -2.8
11 | C54A C57A C87A A89G | ≤ -4.2
12 | U53G C93A C103G | ≤ -4.2
13 | U53A G86A | -2.07
14 | C54A C76G A89U G92U U130G C149A U151A | ≤ -4.2
15 | U53A C93U G140C | ≤ -4.2
16 | U53G C93A C95A A97U A98C G100U U130G G140U | ≤ -4.2
17 | C54G G94U C123U G133C | -2.38
18 | U53A G140C | -3.65
19 | C54G G83C A97U A98U | -2.8
20 | U53A U56G C57U A73G C87A G143A | ≤ -4.2
21 | U53A G92U C103A | -2.78
22 | C54A G67U | -4
23 | U53G G94U A98C | -2.12
24 | C54A C63G C69G C76G U82C C131G | ≤ -4.2

Row | Variant | polymerase ribozyme fitness (log ratio)
25 | U53G U55A C79U G86A G88A C103U U148C | ≤ -4.2
26 | U53A G84C C99A U111A | ≤ -4.2
27 | U53C G86U C96A U146A | -2.73
28 | U53G A115C G143A | -4.06
29 | C54A C85G U102G | ≤ -4.2
30 | U53A G58A A73U C75A A89U G92U A110U G126U G140A A147U | ≤ -4.2
31 | U53A G83C C95U A97C G100A C116G | ≤ -4.2
32 | U53A G58C A150U | 0.575
33 | C54G C85U C96G G112C U130A A142G C149A | ≤ -4.2
34 | U53G C54U C96U A98G G133C G141U | -4.03
35 | U53A C87U | -0.931
36 | C54G A60G G81A C93G C118U | ≤ -4.2
37 | U53A G92A | -3.87
38 | U53A A120G | -1.88
39 | U53A C54A C108G G140A | ≤ -4.2
40 | U53G U90G G100A G124A U144C | ≤ -4.2
41 | U53A G83A C114U | -3.28
42 | U53A U78C U90G C96G | ≤ -4.2
43 | C54A G81C | -0.408
44 | C54A G94U C123G C125A U134C | -3.75
45 | U53G G62C C85U U109C | ≤ -4.2
46 | C54G C96G G126A | -2.33
47 | C54A C79A G100A | ≤ -4.2
48 | U53A C63U C69U A122U | -3.99

Row | Variant | polymerase ribozyme fitness (log ratio)
49 | U53C C93G C99G C118A G126A U146G | ≤ -4.2
50 | C54A G94U A97C C125G | -2.89
51 | U53A U61A U109G | -2.25
52 | U53A G70C C114A | ≤ -4.2
53 | U53A C54U U55A A60U U77G C85U G92A G112A A121U | ≤ -4.2
54 | U53A C76U G83A | -1.6
55 | U53A A147G | -3.69
56 | U53A G68U C76G U130A C132U G136A A142U | ≤ -4.2
57 | C54G C57A G74A A91C C95U C132A | ≤ -4.2
58 | C54A C93G U135G | ≤ -4.2
59 | C54G G84U | -1.6
60 | U53G A60G C87A | ≤ -4.2
61 | U53A C96U C99U G143C | ≤ -4.2
62 | U53C G94C A98C U148G | ≤ -4.2
63 | U53A C96U C103U | -1.14
64 | C54G C96U C123G | -1.53
65 | C54G C116U | -1.08
66 | C54A C149G | -3.71
67 | C54A C96G | -1.71
68 | U53A C57G | -2.09
69 | U53A A137U | ≤ -4.2
70 | U53A G141U | 0.504
71 | U53A C54A G65U G86U A91U | ≤ -4.2
72 | C54G G92C A106G | -2.99

Row | Variant | polymerase ribozyme fitness (log ratio)
73 | C54A A64G U111C G133U G140A G143A | ≤ -4.2
74 | C54G U55A A89U C118G A142C | -3.87
75 | U53A G94A | -1.61
76 | C54A G94C A138C | ≤ -4.2
77 | C54A C85G C95G C114A U134G | ≤ -4.2
78 | U53C G86A C95U | -1.78
79 | C54G C85U C99G | -3.45
80 | C54G C75U C95U A147C | -3.31
81 | C54A G59U A91G U135A | -3.95
82 | U53G A119C A122C G141U | -0.69
83 | U53A C96A C129G | -3.82
84 | U53A C123U | -0.0861
85 | C54A C57U G59U | -0.27
86 | U53G A113C G133A | ≤ -4.2
87 | U53C A64G U90C G117C | ≤ -4.2
88 | U53A U144C U145G | -1.92
89 | C54G C95U U127G | ≤ -4.2
90 | C54G U55G | ≤ -4.2
91 | U53A C93A | -3.27
92 | C54G G58C A122G G124U | -2.2
93 | U53A C69U A89G G94U C96U A115U U148G U151G | ≤ -4.2
94 | U53G U135C | -3.23
95 | C54A C96G C105U U144C | -2.85
96 | C54A C85A C105A | ≤ -4.2

Row | Variant | polymerase ribozyme fitness (log ratio)
97 | U53A C132U U146G | -3.87
98 | C54A U104A C131U | -2.14
99 | C54G C72U U82A U90G G141C | ≤ -4.2
100 | C54G A66C G70C G100C | ≤ -4.2
101 | U53A A98G U101G | -1.25
102 | U53A G81A C85A C131U | -4.19
103 | U53A G62C C93A C118G G133A | ≤ -4.2
104 | U53A G92U A107U G136U | ≤ -4.2
105 | C54A A106C | -2.06
106 | C54G | -1.45
107 | C54A | -1.06
108 | U53A C54U C57A G86A | -2.08
109 | C54A A97U | -1.79
110 | C54G G94A C108A C125U | ≤ -4.2
111 | U53A U55A G62C | -2.35
112 | C54G G83U C108U A115G G143A | ≤ -4.2
113 | U53G U56A G94C A115C C123G | -3.89
114 | C54A G59C G84A | -0.321
115 | C54A G58A G94A A98U | -0.552
116 | C54G G140A U146A | ≤ -4.2
117 | U53A A98U | -1.39
118 | U53A C103G | -3.95
119 | U53A U101G C125A | -0.788
120 | C54A U144G | -0.801

Row | Variant | polymerase ribozyme fitness (log ratio)
121 | C54A U101G U134C U139G U144A | -1.85
122 | U53A U55G G65C C85G C87U C103U C131A | ≤ -4.2
123 | C54A C69A G84A G88A | ≤ -4.2
124 | C54A C118A | -1.5
125 | U53A C93U U130G | ≤ -4.2
126 | U53A U55G | -3.97
127 | C54G G80U C103A | ≤ -4.2
128 | U53A C85A G124U G143C U146C | ≤ -4.2
129 | C54A G80A C103G A110U A120U C132G | ≤ -4.2
130 | U53G A110G G117A U148A | ≤ -4.2
131 | U53A U56G | -1.11
132 | U53A U56A | -2.45
133 | U53G C54A C95U U104C A106U C118U C149G | ≤ -4.2
134 | U53G G84A | -2.52
135 | C54G U56A C96G U102C G136A U144G | -3.08
136 | U53A U146G | -2.38
137 | U53A G83C | -2.61
138 | U53A C95A C125U | -1.7
139 | U53A C75G U109G U139C | ≤ -4.2
140 | C54A U56A G68U U82G G83C G133C | ≤ -4.2
141 | U53G C72G C108G C116A | ≤ -4.2
142 | C54G U61C G84U C87U G88A A119U | ≤ -4.2
143 | U53A G81A C95U A120C U144G | -1.05
144 | U53A C63A A66G G67A G84A A97G | ≤ -4.2

Row | Variant | polymerase ribozyme fitness (log ratio)
145 | C54G C96U A98G | -1.19
146 | U53A G58C A73U C95A | ≤ -4.2
147 | C54A U101A | -2.39
148 | C54A U55C C79A G86C C103G A147C | ≤ -4.2
149 | U53A G117A | -0.303
150 | U53A A115G | -0.769
151 | U53A A115U | -2.87
152 | U53A C96U C105G G112C U146C | ≤ -4.2
153 | C54A C105U | -0.396
154 | C54A U55A C103G | ≤ -4.2
155 | U53A G58A G71A G126A U135G | ≤ -4.2
156 | U53A G83C G94U A97G U101G U102G C116A G140U | ≤ -4.2
157 | U53G G71C G86A G143U | ≤ -4.2
158 | U53A C57U A97G | -1.24
159 | U53A G58C C96U U135G | -3.98
160 | U53G G94C A115U | -3.49
161 | C54G A97U A106C | -2.99
162 | U53A G58U C95A U144A C149A | ≤ -4.2
163 | U53A G62A G86U | -2.24
164 | U53A G81C C87U C123A | -1.74
165 | C54A G94U G140A | ≤ -4.2
166 | C54G A64G A106U A107C U148A | ≤ -4.2
167 | U53A C79A A150U | ≤ -4.2
